# Measured values from patent publication US20230106511A1, “PBP3 BINDING BICYCLIC PEPTIDE LIGANDS” (priority 2020, published 2023).
# T1: PBP3 of E. coli (E. coli), P0AD68
# T1 chain: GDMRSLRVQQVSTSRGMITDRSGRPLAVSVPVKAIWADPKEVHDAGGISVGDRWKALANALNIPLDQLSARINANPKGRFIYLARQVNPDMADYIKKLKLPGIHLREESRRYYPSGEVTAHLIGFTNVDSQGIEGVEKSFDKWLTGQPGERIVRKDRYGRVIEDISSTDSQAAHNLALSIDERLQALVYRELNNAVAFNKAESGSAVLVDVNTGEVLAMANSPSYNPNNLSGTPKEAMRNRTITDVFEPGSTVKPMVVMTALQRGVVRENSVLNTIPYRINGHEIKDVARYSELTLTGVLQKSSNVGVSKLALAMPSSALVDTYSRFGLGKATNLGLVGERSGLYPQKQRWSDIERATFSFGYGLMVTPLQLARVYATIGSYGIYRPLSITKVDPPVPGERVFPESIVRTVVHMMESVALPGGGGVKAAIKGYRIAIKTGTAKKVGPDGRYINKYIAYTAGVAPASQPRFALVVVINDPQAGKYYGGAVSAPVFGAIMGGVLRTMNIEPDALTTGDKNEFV
# Target: T1, PBP3 of E. coli (E. coli), P0AD68
# Test: FP competition, tracer BCY12820
# Details: not given
row,Molecule,Ki [nM]
1,CSFPKCPWVEGC (modifications not checked) [BCY12742],3
2,ACSFPACPWVEGCA (modifications not checked) [BCY13659],4
3,ACQFPVCPWVEGCA (modifications not checked) [BCY13226],20
4,ACAFPKCPWVEGCA (modifications not checked) [BCY13656],5
5,ACSFPKCPWVEKCA (modifications not checked) [BCY13419],40

# Other lines, results leading:
row,Ki [nM],Molecule
1,45400,CSFPKCPWVEGC (modifications not checked) [BCY13949]
2,< 3820,ACVYPKCPWVEGCA (modifications not checked) [BCY13768]
3,< 4080,ACWFPNCPWVEGCA (modifications not checked) [BCY13764]
4,30,ACSFPKCPWVEACA (modifications not checked) [BCY13664]

# Target: T1, PBP3 of E. coli (E. coli), P0AD68
# Test: fluorescence polarisation competition, BODIPY-labelled penicillin as tracer
# Details: not given
row,Ki [nM],Molecule
1,1390,ACLENCYYVPYYGYACA (modifications not checked) [BCY12123]

# Target: unmodified PBP protein
# Test: Fluorescence polarisation competition binding assay (BODIPY labelled penicillin tracer)
# Details: competition with BODIPY labelled penicillin tracer
# Procedure: Fluorescence polarisation competition was carried out using a BODIPY labelled Penicillin tracer and unlabelled peptides, for competition to an unmodified PBP protein.
# Fluorescent BODIPY labelled penicillin at 5 mM in DMSO were diluted to 6.25 nM in binding buffer (10 mM HEPES, pH8, 300 mM NaCl, 2% glycerol). Unmodified PBP were diluted to 2 μM in binding buffer. A two-fold dilution series of unmodified peptide was prepared across 12 wells in binding buffer, with the highest final well concentration being 60 μM, and the lowest concentration being […]. 5 μl of the unmodified peptide dilution series or Carbenicillin were added to 12 wells of a 384-Well NBS™ Low Volume Microplate (Fisher Scientific). 10 μl diluted fluorescent BODIPY labelled penicillin (6.25 nM) were then added to the 12 wells containing the unmodified peptide dilutions. 10 μl of unmodified PBP (2 μM) were then added to the 12 wells containing unmodified peptide and fluorescent BODIPY labelled penicillin to bring the total volume to 25 μl, and the final concentration of Fluorescent BODIPY labelled penicillin to 2.5 nM and unmodified PBP to 800 nM. […]
# Fluorescence polarisation was measured every 5 minutes for a period of one hour at room temperature. […]
# Data were analysed in GraphPad software to derive values for the inhibition constant. […]
row,Molecule,Ki [nM]
1,"A-CiLENCiiYYVPYYGYACiii-A, TATA bicyclic peptide [BCY12123, A-(SEQ ID NO: 3)-A]",1390

# Target: PBP3 (E. coli) (Escherichia coli, UniProt P0AD68)
# Test: Fluorescence polarisation direct binding assay
# Details: direct binding to PBP 3 (E. coli)
# Procedure: Fluorescent peptides at 10 mM in DMSO were diluted to 2.5 nM in binding buffer (10 mM HEPES, pH8, 300 mM NaCl, 2% glycerol). A two-fold dilution series of PBP protein was then prepared across 12 wells in binding buffer, with the highest concentration being 21 μM, and the lowest concentration being 17 nM.
# 10 μl diluted fluorescent peptide (2.5 nM) was added into 12 wells of a 384-Well NBS™ Low Volume Microplate (Fisher Scientific). 10 μl PBP dilution series was then added to the wells containing the fluorescent peptide, and 5 μl binding buffer was added to bring the total volume to 25 μl and the final concentration of peptide tracer to 1 nM. A control well lacking PBP protein was prepared with a final peptide concentration of 1 nM to a final volume of 25 μl in binding buffer. Fluorescence polarisation was measured every 5 minutes for a period of one hour at room temperature. The gain and focal height were optimised using the control well lacking protein.
# Data were analysed in GraphPad software to derive values for the dissociation constant. Experiments were repeated at least three times.
# Certain peptide ligands of the invention were tested in the above mentioned binding assay and the results are shown in Table 1 for binding to the indicated PBP: […]
# Sequence of PBP3 (E. coli) (P0AD68 1-577): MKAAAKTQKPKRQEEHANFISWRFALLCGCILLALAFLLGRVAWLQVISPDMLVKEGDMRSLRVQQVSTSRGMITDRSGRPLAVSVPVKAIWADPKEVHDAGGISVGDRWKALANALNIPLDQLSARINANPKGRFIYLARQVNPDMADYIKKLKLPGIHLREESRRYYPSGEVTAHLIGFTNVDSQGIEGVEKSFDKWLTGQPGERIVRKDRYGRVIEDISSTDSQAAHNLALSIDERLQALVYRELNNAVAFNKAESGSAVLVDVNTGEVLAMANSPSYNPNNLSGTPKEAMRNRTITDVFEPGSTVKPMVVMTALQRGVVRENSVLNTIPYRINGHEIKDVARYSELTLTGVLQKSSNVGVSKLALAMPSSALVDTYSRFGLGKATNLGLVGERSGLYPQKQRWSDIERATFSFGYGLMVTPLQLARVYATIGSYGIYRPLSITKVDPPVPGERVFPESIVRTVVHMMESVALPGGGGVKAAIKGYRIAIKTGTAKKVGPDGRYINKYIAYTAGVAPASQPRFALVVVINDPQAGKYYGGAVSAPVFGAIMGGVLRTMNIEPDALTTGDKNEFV
row,Molecule,Kd [nM]
1,Cc1cc(C)n2c1C=C1C=CC(CCC(=O)Nc3ccc(OCC(=O)N[C@@H]4C(=O)N5[C@@H]4SC(C)(C)[C@@H]5C(=O)O)cc3)=[N+]1[B-]2(F)F [Bocillin],440
